The test has as its target T1, human TSLPR on cells (Ba/F3 cells stably overexpressing hTSLPR/hIL7Rα/Stat5-Luc; primary human monocytes) (human, UniProt Q9HC73 23-371).
T1 sequence (looked up): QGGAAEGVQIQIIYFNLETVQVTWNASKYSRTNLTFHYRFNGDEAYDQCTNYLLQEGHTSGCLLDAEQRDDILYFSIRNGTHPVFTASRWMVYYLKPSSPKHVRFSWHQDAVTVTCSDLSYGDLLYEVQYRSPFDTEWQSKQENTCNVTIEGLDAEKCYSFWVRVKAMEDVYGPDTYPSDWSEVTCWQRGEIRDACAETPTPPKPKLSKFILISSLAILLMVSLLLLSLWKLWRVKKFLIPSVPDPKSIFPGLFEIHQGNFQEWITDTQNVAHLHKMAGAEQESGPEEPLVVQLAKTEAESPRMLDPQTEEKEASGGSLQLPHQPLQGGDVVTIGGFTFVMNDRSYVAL
As to the kind of experiment: cell-based or functional assay.

Changes are numbered by the printed parent chain.

B1: NV163-1-Fab' (Fab, V domains shown)
VH: QVQLVQSGSELKKPGASVKVSCKASGYTFTSYGISWVRQAPGQGLEWMGWVNTNTGNPRYAQGFTGRFVFSLDTSVSTAYLQISSLKAEDTAVYYCAREGFIRTVVGAAGRFVYWGQGTLVTVSS
VL: DIQMTQSPSSLSASVGDRVTITCRASQDIHTRLAWYQQKPGKAPKLLIYWASTRGSGVPSRFSGSGSGTDFTLTISSLQPEDFATYYCQQYSAYPTFGQGTKLEIK
As for B1, the “IC50, luciferase reporter gene assay (Stat5-Luc)” value came out at 2.7 nM.

B2: NV164-1-IgG1 (antibody, V domains shown)
VH: B1 VH with I34M
VL: DIQMTQSPSSLSASVGDRVTITCRASQDIHTRLAWYQQKPGKAPKLLIYWASTLQSGVPSRFSGSGSGTDFTLTISSLQPEDFATYYCQQYSAYPTFGQGTKLEIKG
For the molecule B2, the “IC50, inhibition of TARC secretion from primary human monocytes” value is 0.011 nM; the “IC50, luciferase reporter gene assay (Stat5-Luc), natural human TSLP” value was determined as 0.04 nM; the “IC50, luciferase reporter gene assay (Stat5-Luc), recombinant human TSLP” value was 0.221 nM.

B3: NV115-3B-IgG1 (antibody, V domains shown)
VH: B1 VH with S9A, L11V, S31T, V37L, R103T
VL: B1 VL with K42Q, A43P, G55A, S60D, S65T, P80A, F83V, T85V, A93T
On to B3, for which the “IC50, inhibition of TARC secretion from primary human monocytes” value was 0.01 nM; the “IC50, luciferase reporter gene assay (Stat5-Luc), natural human TSLP” value is 0.05 nM; the “IC50, luciferase reporter gene assay (Stat5-Luc), recombinant human TSLP” value stood at 0.126 nM.

B4: NV164-1-Fab' (Fab, V domains shown)
VH: B1 VH with I34M
VL: B1 VL with R54L, G55Q
As to B4, the “IC50, luciferase reporter gene assay (Stat5-Luc)” value was determined as 4 nM.
